This passage reports binding result and binding signal results from article doi:10.1101/558098.

What all share (experiment): EMSA
Data set [1] concerns the target T1, IMP1 (human, UniProt Q9NZI8 1-577).
For data set [2], the target named is T2, YBX1 (human, UniProt P67809 1-324).
Data set [3] addresses T2, YBX1. The source holds these as a separate data set.
In another data set the target is IMP1_KH1-4mut (human, UniProt Q9NZI8 1-577, K213E;E214L;K294E;E295L;K423E;K424L;K505E;G506L).
Data set [4] addresses T1, IMP1. The source holds these as a separate data set.
Data set [5] deals with T1, IMP1. The source holds these as a separate data set.
Data set [6] addresses T2, YBX1. The source holds these as a separate data set.
The target in data set [7] is T2, YBX1. This is another data set of the same source.
Data set [8] addresses T1, IMP1. The source holds these as a separate data set.

Read-outs that look alike come from different tables or passages of the source.

T2 sequence (P67809 whole entry): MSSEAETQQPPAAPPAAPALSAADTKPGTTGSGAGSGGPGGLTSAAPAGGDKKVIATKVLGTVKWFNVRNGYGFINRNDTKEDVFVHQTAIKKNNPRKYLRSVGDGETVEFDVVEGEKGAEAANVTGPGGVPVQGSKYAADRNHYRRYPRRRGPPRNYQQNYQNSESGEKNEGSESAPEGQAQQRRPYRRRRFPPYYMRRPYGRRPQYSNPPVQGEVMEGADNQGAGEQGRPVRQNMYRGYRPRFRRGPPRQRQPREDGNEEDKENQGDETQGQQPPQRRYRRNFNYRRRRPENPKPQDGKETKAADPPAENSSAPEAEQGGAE
T1 sequence (Q9NZI8 whole entry): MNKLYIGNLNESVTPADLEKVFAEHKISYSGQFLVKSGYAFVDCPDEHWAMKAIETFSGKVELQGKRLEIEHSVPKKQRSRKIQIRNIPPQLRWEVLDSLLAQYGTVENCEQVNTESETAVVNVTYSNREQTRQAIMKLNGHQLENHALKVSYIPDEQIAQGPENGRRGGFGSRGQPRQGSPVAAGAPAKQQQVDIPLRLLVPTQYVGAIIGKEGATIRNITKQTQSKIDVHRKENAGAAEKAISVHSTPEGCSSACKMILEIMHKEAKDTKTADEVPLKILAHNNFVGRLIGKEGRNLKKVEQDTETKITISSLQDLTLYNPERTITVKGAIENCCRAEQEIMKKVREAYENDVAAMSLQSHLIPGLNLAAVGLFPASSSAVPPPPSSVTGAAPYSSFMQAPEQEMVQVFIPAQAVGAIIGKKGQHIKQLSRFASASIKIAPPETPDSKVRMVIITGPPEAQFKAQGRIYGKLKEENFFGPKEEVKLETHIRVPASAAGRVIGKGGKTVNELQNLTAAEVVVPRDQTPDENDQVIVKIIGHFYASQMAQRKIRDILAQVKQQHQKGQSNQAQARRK
Sequence of IMP1_KH1-4mut (Q9NZI8 whole entry K213E/E214L/K294E/E295L/K423E/K424L/K505E/G506L): as the sequence (Q9NZI8 whole entry) above, with K213E, E214L, K294E, E295L, K423E, K424L, K505E, G506L counted along it

B1: ACTB 3'UTR (ssRNA)
RNA: GGCGGACUAUGACUUAGUUGCGUUACACCCUUUCUUGACAAAACCUAACUUGCGCAGAAAACAAGAUGAGAUUGGCAUGGCUUUAUUUGUUUUUUUUGUUUUGUUUUGGUUUUUUUUUUUUUUUUGGCUUGACUCAGGAUUUAAAAACUGGAACGGUGAAGGUGACAGCAGUCGGUUGGAGCGAGCAUCCCCCAAAGUUCACAAUGUGGCCGAGGACUUUGAUUGCACAUUGUU
Turning to B1, the binding result with IMP1 [1] and with YBX1 [2] was “binds” each time.

B2: C-MYC CRD (ssRNA)
RNA: GGACCAGAUCCCGGAGUUGGAAAACAAUGAAAAGGCCCCCAAGGUAGUUAUCCUUAAAAAAGCCACAGCAUACAUCCUGUCCGUCCAAGCAGAGGAGCAAAAGCUCAUUUCUGAAGAGGACUUGUUGCGGAAACGACGAGAACAGUUGAAACACAAACUUGAACAGCUACGGAACUCUUGUGCG
Consider B2, for which the binding result with YBX1 [3] and in the data set with IMP1 [4] was “binds” each time. Moreover, the binding signal with IMP1_KH1-4mut was ~10 fold reduction vs wild-type IMP1.

B3: ACTB exon 5 (ssRNA)
RNA: not shown
For B3, the results for the binding result in the data set with IMP1 [5] and with YBX1 [6] were “no binding” and “binds”, respectively.

B4: C-MYC 3'UTR (ssRNA)
RNA: GGAAAAGUAAGGAAAACGAUUCCUUCUAACAGAAAUGUCCUGAGCAAUCACCUAUGAACUUGUUUCAAAUGCAUGAUCAAAUGCAACCUCACAACCUUGGCUGAGUCUUGAGACUGAAAGAUUUAGCCAUAAUGUAAACUGCCUCAAAUUGGACUUUGGGCAUAAAAGAACUUUUUUAUGCUUACCAUCUUUUUUUUUUCUUUAACAGAUUUGUAUUUAAGAAUUG
Turning to B4, the binding result with YBX1 [7] and with IMP1 [8] was “binds” each time.
